Test results published in the Human Domainome abundance scans (Beltran et al. 2025).
± gives the uncertainty stated by the source.

B1: Chromodomain-helicase-DNA-binding protein 3, residues 374 to 426; numbered along this chain, Q12873 (parent)
chain: YETDHQDYCEVCQQGGEIILCDTCPRAYHLVCLDPELDRAPEGKWSCPHCEKE

Variants of: B1
Assay: abundance fitness (aPCA) (normalised: wild type 0, dead -1); higher = more abundant; growth selection in yeast, the domain comes from the species named
Conditions: Homo sapiens

Variant	abundance fitness
R26Y	-0.148 ± 0.15
R26P	-0.655 ± 0.17
R26Q	0.417 ± 0.28
R26M	-0.106 ± 0.16
R26G	-0.046 ± 0.091
R26C	-0.669 ± 0.24
R26N	-0.169 ± 0.16
R26I	-0.445 ± 0.17
R26D	-0.159 ± 0.15
R26S	0.087 ± 0.1
R26A	-0.202 ± 0.11
R26L	0.155 ± 0.1
R26V	-0.363 ± 0.1
R26E	-0.123 ± 0.13
R26H	-0.17 ± 0.18
V31Y	-0.297 ± 0.17
V31A	0.158 ± 0.12
V31I	-0.245 ± 0.12
V31S	-0.061 ± 0.096
V31H	0.038 ± 0.13
V31Q	-0.012 ± 0.13
V31D	-0.18 ± 0.15
V31N	-0.314 ± 0.12
V31E	-0.229 ± 0.14

Variant	abundance fitness
V31T	-0.3 ± 0.11
V31W	-0.26 ± 0.14
V31G	-0.094 ± 0.13
V31F	-0.09 ± 0.12
V31K	-0.132 ± 0.15
V31C	-0.254 ± 0.15
V31M	-0.03 ± 0.12
V31L	-0.17 ± 0.094
G16I	0.079 ± 0.17
G16Q	-0.251 ± 0.19
G16R	0.197 ± 0.083
G16M	-0.237 ± 0.15
G16P	-0.423 ± 0.13
G16H	-0.057 ± 0.17
G16K	0.346 ± 0.13
G16T	0.234 ± 0.13
G16W	0.025 ± 0.12
G16V	-0.113 ± 0.11
G16Y	0.033 ± 0.15
G16E	0.07 ± 0.15
G16D	-0.053 ± 0.18
G16F	-0.156 ± 0.28
G16N	0.157 ± 0.16
G16L	-0.097 ± 0.11

Variant	abundance fitness
G16S	0.118 ± 0.1
G16C	-0.256 ± 0.14
H29A	-0.745 ± 0.11
H29K	-0.912 ± 0.17
H29R	-0.786 ± 0.097
H29E	-0.872 ± 0.14
H29V	-0.745 ± 0.11
H29P	-0.801 ± 0.17
H29Y	-1.1 ± 0.19
H29C	0.029 ± 0.13
H29L	-0.763 ± 0.12
H29W	-0.656 ± 0.14
H29N	-0.383 ± 0.17
H29S	-0.852 ± 0.13
H29T	-0.846 ± 0.15
H29D	-0.615 ± 0.15
H29G	-0.844 ± 0.11
H29F	-1.07 ± 0.19
H29I	-1.09 ± 0.22
C32P	-0.957 ± 0.11
C32N	-0.797 ± 0.13
C32Q	-0.821 ± 0.15
C32V	-1.2 ± 0.15
C32I	-1.06 ± 0.12

Variant	abundance fitness
C32T	-0.948 ± 0.12
C32E	-0.663 ± 0.24
C32F	-1.05 ± 0.11
C32K	-0.958 ± 0.21
C32W	-0.502 ± 0.15
C32M	-0.94 ± 0.18
C32S	-0.68 ± 0.086
C32A	-1.09 ± 0.14
C32L	-0.986 ± 0.095
C32H	-0.163 ± 0.085
C32R	-1.06 ± 0.12
C32D	-0.718 ± 0.16
C12T	-0.813 ± 0.12
C12S	-0.956 ± 0.11
C12R	-0.954 ± 0.094
C12Y	-0.871 ± 0.13
C12P	-0.76 ± 0.13
C12W	-0.836 ± 0.11
C12V	-0.78 ± 0.14
C12N	-0.67 ± 0.17
L33G	0.07 ± 0.1
L33H	-0.146 ± 0.15
L33N	-0.326 ± 0.14
L33M	-0.148 ± 0.13

Variant	abundance fitness
L33F	-0.449 ± 0.14
L33E	-0.365 ± 0.18
L33A	-0.12 ± 0.12
L33K	-0.663 ± 0.15
L33D	-0.755 ± 0.29
L33I	-0.214 ± 0.14
L33C	0.072 ± 0.12
I19Y	0.117 ± 0.18
I19M	0.313 ± 0.14
I19T	0.051 ± 0.11
I19F	-0.277 ± 0.22
I19N	0.167 ± 0.22
I19K	0.19 ± 0.13
I19S	-0.162 ± 0.11
I19L	0.093 ± 0.097
I19Q	0.068 ± 0.16
I19G	-0.177 ± 0.087
I19V	-0.153 ± 0.1
I19H	-0.111 ± 0.25
I19D	-0.248 ± 0.14
I19R	-0.101 ± 0.1
E17A	-0.081 ± 0.1
E17R	-0.148 ± 0.085
E17G	-0.234 ± 0.094

Variant	abundance fitness
E17H	-0.882 ± 0.33
E17T	0.053 ± 0.12
E17F	-0.162 ± 0.14
E17C	-0.037 ± 0.11
E17P	-0.558 ± 0.14
E17N	0.07 ± 0.17
E17S	-0.087 ± 0.094
E17I	-0.353 ± 0.2
E17Q	-0.147 ± 0.14
E17M	0.152 ± 0.13
E17Y	-0.031 ± 0.17
E17V	-0.489 ± 0.11
E17L	-0.258 ± 0.11
E17D	-0.047 ± 0.13
Q13V	-0.057 ± 0.084
Q13G	-0.194 ± 0.1
Q13M	0.084 ± 0.09
Q13K	-0.051 ± 0.1
Q13P	-0.783 ± 0.13
Q13R	0.01 ± 0.081
Q13C	-0.048 ± 0.12
Q13N	-0.084 ± 0.13
Q13A	-0.237 ± 0.1
Q13S	-0.019 ± 0.084

Variant	abundance fitness
Q13H	0.059 ± 0.11
Q13Y	-0.015 ± 0.11
Q13D	-0.346 ± 0.12
Q13F	0.012 ± 0.12
Q13W	-0.363 ± 0.12
Q13E	-0.09 ± 0.12
G15C	-0.823 ± 0.34
G15V	-0.609 ± 0.21
G15E	-0.202 ± 0.19
G15N	-0.065 ± 0.27
G15P	-0.488 ± 0.31
G15Y	-0.03 ± 0.26
G15A	0.329 ± 0.18
G15D	-0.21 ± 0.27
G15Q	-0.434 ± 0.27
G15K	0.112 ± 0.27
G15T	0.088 ± 0.18
G15W	-0.121 ± 0.2
G15M	0.084 ± 0.21
G15L	-0.366 ± 0.21
C24Y	-1.34 ± 0.24
C24E	-1.16 ± 0.26
C24V	-1.08 ± 0.15
C24Q	-0.898 ± 0.24

Variant	abundance fitness
C24T	-0.687 ± 0.17
C24F	-1.05 ± 0.23
C24P	-1.11 ± 0.21
C24S	-0.617 ± 0.15
C24G	-0.962 ± 0.14
C24K	-0.919 ± 0.21
C24H	-0.907 ± 0.25
C24W	-1.12 ± 0.19
C24I	-0.9 ± 0.35
C24M	-0.914 ± 0.24
C24R	-0.951 ± 0.14
C24D	-0.754 ± 0.22
C24A	-0.799 ± 0.23
Q14T	-0.051 ± 0.1
Q14C	-0.036 ± 0.13
Q14P	-1 ± 0.22
Q14V	-0.129 ± 0.14
Q14F	-0.26 ± 0.12
Q14Y	-0.501 ± 0.2
Q14H	-0.159 ± 0.15
Q14L	-0.127 ± 0.1
Q14A	-0.043 ± 0.12
Q14G	-0.151 ± 0.15
Q14E	-0.029 ± 0.43

Variant	abundance fitness
Q14M	-0.022 ± 0.14
Q14D	-0.166 ± 0.18
Q14S	-0.192 ± 0.096
Q14R	0.017 ± 0.088
Q14N	0.016 ± 0.15
Q14I	-0.17 ± 0.17
C21A	-0.778 ± 0.16
C21V	-0.57 ± 0.13
C21K	-0.846 ± 0.2
C21E	-1.15 ± 0.28
C21H	-0.806 ± 0.25
C21W	-0.831 ± 0.15
C21Y	-0.692 ± 0.16
C21P	-0.984 ± 0.34
C21I	-0.818 ± 0.21
C21T	-0.381 ± 0.17
C21S	-0.569 ± 0.13
C21N	-0.903 ± 0.21
C21Q	-0.822 ± 0.2
C21L	-0.74 ± 0.13
C21D	-0.868 ± 0.26
C21G	-0.637 ± 0.12
C21M	-0.901 ± 0.21
L30C	0.072 ± 0.12

Variant	abundance fitness
L30H	-0.059 ± 0.13
L30S	-0.202 ± 0.097
L30G	-0.014 ± 0.13
L30A	0.053 ± 0.11
L30K	-0.121 ± 0.14
L30D	-0.264 ± 0.17
L30I	-0.27 ± 0.14
L30N	-0.197 ± 0.18
L30P	0.021 ± 0.11
L30F	-0.038 ± 0.15
L30V	-0.014 ± 0.1
L30Q	-0.189 ± 0.14
L30Y	0.098 ± 0.13
L30M	0.067 ± 0.088
L30T	-0.067 ± 0.11
L30E	-0.155 ± 0.14
Y28W	0.143 ± 0.14
Y28T	-0.203 ± 0.14
Y28M	0.219 ± 0.14
Y28I	0.013 ± 0.13
Y28A	0.122 ± 0.12
Y28R	-0.256 ± 0.1
Y28P	-0.837 ± 0.2
Y28F	-0.145 ± 0.12

Variant	abundance fitness
Y28V	-0.284 ± 0.11
Y28E	-0.48 ± 0.21
Y28H	0.148 ± 0.13
Y28G	-0.191 ± 0.14
Y28N	-0.377 ± 0.14
Y28D	-0.593 ± 0.18
Y28Q	-0.445 ± 0.14
Y28L	-0.059 ± 0.1
Y28K	-0.578 ± 0.22
Y28C	-0.189 ± 0.15
I18W	-0.152 ± 0.14
I18A	0.024 ± 0.1
I18Q	-0.107 ± 0.14
I18C	-0.521 ± 0.19
I18L	-0.022 ± 0.099
I18T	0.131 ± 0.14
I18Y	0.162 ± 0.13
I18V	-0.297 ± 0.11
I18H	0.063 ± 0.16
I18F	-0.071 ± 0.15
I18N	-0.218 ± 0.18
I18E	0.13 ± 0.14
I18R	-0.12 ± 0.091
I18P	-0.191 ± 0.12

Variant	abundance fitness
I18G	-0.087 ± 0.11
I18K	-0.124 ± 0.15
I18S	-0.26 ± 0.12
D22V	-0.204 ± 0.12
D22R	0.053 ± 0.14
D22S	0.048 ± 0.15
D22H	-0.388 ± 0.28
D22F	-0.344 ± 0.19
D22N	-0.008 ± 0.15
D22G	-0.191 ± 0.16
D22Q	0.557 ± 0.18
D22W	-0.013 ± 0.17
D22A	-0.31 ± 0.27
D22T	-0.222 ± 0.16
D22L	-0.171 ± 0.14
D22C	-0.229 ± 0.18
D22P	-0.109 ± 0.18
D22Y	-0.142 ± 0.22
D22M	0.008 ± 0.28
D22I	-0.021 ± 0.24
L20P	0.402 ± 0.11
L20G	0.208 ± 0.099
L20N	0.101 ± 0.15
L20I	0.076 ± 0.17

Variant	abundance fitness
L20K	0.081 ± 0.11
L20D	0.015 ± 0.16
L20T	0.262 ± 0.098
L20S	0.171 ± 0.095
L20M	0.047 ± 0.12
L20R	0.149 ± 0.094
L20E	-0.003 ± 0.14
L20Q	-0.143 ± 0.13
L20C	0.01 ± 0.15
L20W	-0.205 ± 0.16
L20V	-0.078 ± 0.099
L20F	0.037 ± 0.15
L20Y	0.102 ± 0.16
T23F	-0.035 ± 0.11
T23I	-0.189 ± 0.12
T23N	0.122 ± 0.15
T23E	-0.077 ± 0.16
T23S	0.032 ± 0.1
T23L	-0.22 ± 0.099
T23P	-0.596 ± 0.14
T23K	-0.696 ± 0.19
T23H	-0.146 ± 0.13
T23D	-0.308 ± 0.2
T23A	-0.337 ± 0.14

Variant	abundance fitness
T23Y	0.05 ± 0.12
T23V	-0.162 ± 0.17
T23R	-0.179 ± 0.11
T23M	0.024 ± 0.2
T23Q	-0.455 ± 0.27
T23W	-0.631 ± 0.19
T23G	-0.248 ± 0.2
A27K	-0.407 ± 0.41
P25A	0.092 ± 0.14
P25D	-0.482 ± 0.28
P25S	-0.116 ± 0.13
P25N	-0.204 ± 0.4
P25H	-0.249 ± 0.26
P25T	-0.004 ± 0.14
P25K	-0.385 ± 0.18
P25Q	-0.39 ± 0.23
P25R	-0.235 ± 0.12
P25F	-0.021 ± 0.37
P25I	-0.261 ± 0.33
P25M	-0.227 ± 0.24
P25C	0.04 ± 0.18
P25W	-0.144 ± 0.14
